In the RNAGym collection of RNA variant scans (doi:10.7554/elife.80360):

B1: Twister Ribozyme (parent)
chain: AACACUGCCAAUGCCGGUCCCAAGCCCGGAUAAAAGUGGAGGGGGCGG

Variants of: B1
Experiment: self-cleavage, relative activity (ratio to wild type); higher = more cleavage; co-transcriptional

Variant | self-cleavage
C15U G24A | 0.1
C15U G24C | 0.115
G17A A33G | 0.451
G17U U37G | 0.12
G17U U37A | 0.092
C15U A35G | 0.659
C15U A35U | 0.915
C15U G16U | 0.31
C15U G16C | 0.464
C15U G16A | 0.457
G16C A32U | 0.456
G16C A32C | 0.536
G16C A32G | 0.518
G17C C25A | 0.0882
G17C C25U | 0.0911
G17C U31A | 0.138
C15U G44C | 0.812
C15U G44U | 0.988
G16A G17U | 0.232
G16C C21U | 0.0834
G16C C21G | 0.0586
C15U G28U | 0.973
C15U G28A | 1.14
G16C G39A | 0.28

Variant | self-cleavage
G16C G39C | 0.119
G16C G36C | 0.0717
G16C G36U | 0.113
G16C G38C | 0.572
G16U U18G | 0.0727
G16U U18A | 0.605
G16A G36A | 0.409
G17C G39A | 0.0934
G17A G39C | 0.105
G17A G39U | 0.165
G17A C21G | 0.073
G17C A40C | 0.117
G17C A40U | 0.0929
C15U G43U | 0.277
G16A A33U | 0.858
G16A A33C | 0.799
C15U G41C | 0.209
G17C C46A | 0.107
G16U C25A | 0.206
G16U C25G | 0.154
G16C A35C | 0.394
G17C C21A | 0.0572
G17C A33G | 0.093
G17C A33U | 0.0842

Variant | self-cleavage
C15U C21G | 0.0408
G16A G29A | 0.639
G16U C27A | 0.908
C15U G29A | 0.927
C15U G29C | 0.194
C15U G29U | 0.652
G17A A22C | 0.669
G17A A22U | 0.258
G17A A22G | 0.136
G16A G38U | 0.656
G17A A34U | 0.137
G17A A34G | 0.211
G17A G38C | 0.54
G17A G38U | 0.468
G17U C21U | 0.0901
G17A G44C | 0.733
G17A G44A | 0.671
G16C G28U | 0.383
G16C G28A | 0.194
G16C G43A | 0.148
G16A A23G | 0.161
G16A A23C | 0.137
G16C G42A | 0.139
G16C G42C | 0.121

Variant | self-cleavage
G16C G42U | 0.115
G16U U31G | 1.04
G17C A34U | 0.0853
G17C A34G | 0.112
G16A C27G | 0.745
G16U C46G | 0.963
C15U A34C | 0.205
C15U A34U | 0.68
G16U G28A | 0.641
G16U G28C | 1.02
C15U A23U | 0.291
G17U U18G | 0.106
G17U U18A | 0.148
G16A G48C | 1.08
G16A G48U | 0.917
G16A G48A | 0.979
G16A A30U | 1.04
G16C C25A | 0.0993
G17C G44C | 0.122
G17C G44A | 0.109
G16A C20G | 0.158
G17C G47C | 0.142
G17C G47A | 0.0753
G16A G45A | 0.891

Variant | self-cleavage
G16C G41U | 0.103
G16C G41C | 0.0971
G17C A32U | 0.109
G17C G45A | 0.132
C15U G42U | 0.235
C15U G42A | 0.204
C15U G42C | 0.296
G16C C20A | 0.0672
G16C C20G | 0.104
G16U G38U | 0.914
G17A A40C | 0.105
G17A A40U | 0.117
G17A A40G | 0.171
G17U G42U | 0.126
C15U U18A | 0.379
G17U A30G | 0.265
G17A G28U | 0.258
G16U G47A | 0.378
G16U G47U | 0.653
G16U A22U | 0.759
G16U A22C | 0.925
G16U A22G | 0.21
G16U G42A | 0.26
G16U G42U | 0.166

Variant | self-cleavage
G17U G47C | 0.183
G17U G47U | 0.181
G17C A35U | 0.138
G17C G42U | 0.0737
G16C G29U | 0.194
G16A G28A | 0.48
G16A G28C | 0.489
U18A A40C | 0.133
U18A A40U | 0.147
C15U G48A | 0.765
C15U G48U | 0.987
G17A U37C | 0.142
G17A U37G | 0.175
G17A G45C | 0.278
G17U C26G | 0.637
G17U C26U | 0.458
C15U C26A | 0.126
G17U G48A | 0.316
G17U G48C | 0.467
G17U G48U | 0.316
G17U C19A | 0.0777
G16C A34C | 0.0817
G16C A34G | 0.298
G17U A33G | 0.317

Variant | self-cleavage
G17U A33C | 0.199
G17U A33U | 0.257
G16C G24C | 0.0655
G16C G24A | 0.0685
G17U A35G | 0.1
G17U A35C | 0.305
G17C G48C | 0.152
G17U G44C | 0.293
G16U G39U | 0.225
G16U G39A | 0.595
G16A G44U | 1
G16A G44A | 0.928
G16A U31A | 0.958
G16A U31C | 0.816
C15U A33C | 0.839
C15U A33U | 1.01
C15U A33G | 0.802
G17C G43C | 0.0789
C15U A32G | 0.891
C15U A32C | 0.678
G17A U31C | 0.746
G17A U31A | 0.715
G16U G41A | 0.278
C15U G47C | 0.415

Variant | self-cleavage
G16U G17C | 0.105
G16U A23U | 0.238
G17U C25U | 0.204
G16A G43U | 0.321
G16A G43C | 0.181
C15U C27U | 0.542
G17C G38U | 0.073
G16C C26A | 0.35
G17U C27U | 0.207
G17U C27G | 0.424
G17C C27G | 0.195
G17C C27U | 0.0804
C15U C20U | 0.845
U18A A22G | 0.0469
U18A A22C | 0.485
G16C C27U | 0.854
G16C G45C | 0.249
G16C G45A | 0.161
G16C G45U | 0.379
G16C A30U | 0.741
G16C A30G | 0.31
C15U G36A | 0.454
C15U G36U | 0.203
G16A A40G | 0.17

Variant | self-cleavage
G16A A40U | 0.125
G16A G39A | 0.185
G16A G39C | 0.141
G17A A35U | 0.869
G16C U31G | 0.663
G16U G43A | 0.203
G16U G43C | 0.183
G16U G43U | 0.313
G16A | 1.03
G16C | 0.663
G16U | 1.07
G16A G42C | 0.241
G16A C19G | 0.172
C15U G45A | 0.924
C15U G45C | 0.64
C15U G45U | 0.817
G17C G29U | 0.0973
G17C G29A | 0.0678
G17U G29A | 0.118
G17U G29C | 0.0894
G17U G29U | 0.158
G16C A40G | 0.135
G16U G45U | 0.819
G16U G45C | 0.554

Variant | self-cleavage
G16A A32C | 0.97
C15U G38C | 0.801
G17U G38A | 0.206
G17U G38C | 0.203
U18A A23C | 0.372
U18A A23U | 0.753
G17U G39A | 0.119
G17C G24U | 0.0734
G17C G24C | 0.0583
G17C G24A | 0.0848
U18A | 0.667
G16U G24U | 0.0815
G16U G24A | 0.129
U18A A33G | 0.203
U18A A33U | 0.391
G16C G17C | 0.0907
G16C G17U | 0.174
G17A G42A | 0.107
G17A C25U | 0.255
G17A C25G | 0.0728
G17A C25A | 0.164
G16U A40G | 0.206
G16A C46A | 0.994
G16A C46U | 0.895

Variant | self-cleavage
G16U A30C | 0.804
G16U A30U | 1.08
G17A C27G | 0.243
G17A C27U | 0.403
G16U C21U | 0.105
G16U C21G | 0.101
G16U C21A | 0.137
G17U C20A | 0.0851
G16C U37A | 0.165
G16C U37C | 0.0928
G17C C26A | 0.286
G17C C26U | 0.17
G17A G48A | 0.661
G17U G28U | 0.122
G17U G28A | 0.11
G17A C26A | 0.78
G17A C26G | 0.442
C15U A30G | 0.759
C15U A30U | 0.925
C15U A30C | 0.802
G16C A33G | 0.403
G16A C25U | 0.852
G16C A23C | 0.0636
G17U C46G | 0.301

Variant | self-cleavage
G16C A22G | 0.0711
G16C A22C | 0.198
G17C U18C | 0.1
G16A G47U | 0.487
U18A A34C | 0.113
C15U C46G | 0.887
C15U C46A | 0.944
G17A G43U | 0.123
G17A G43C | 0.129
C15U C25G | 0.414
G17A A30G | 0.615
G17A A30U | 0.695
G17U G36A | 0.124
G17C G28C | 0.0667
G17C G28U | 0.0606
G17C G28A | 0.069
G17U G45A | 0.148
G16A C21U | 0.0697
G16A C21G | 0.0789
G16C U18A | 0.336
G16C U18C | 0.114
G17A G24A | 0.118
G17U U31G | 0.339
G17U U31A | 0.471

Variant | self-cleavage
G16U G36A | 0.426
G16U G36U | 0.124
G17A G41C | 0.164
G16U G29A | 0.946
G16U G29C | 0.544
G17U A40G | 0.0578
G17U A40C | 0.123
G16C C46A | 0.693
G16C C46G | 0.262
G16C C19A | 0.165
G16C C19U | 0.461
G16A A34U | 0.417
G16A U18G | 0.0863
G17U G43A | 0.13
G17U G43C | 0.0878
C15U C19U | 0.902
C15U C19G | 0.251
G17C C20G | 0.0846
G17C A22G | 0.0562
G17A C20U | 0.373
G17U A22C | 0.406
G17U A22U | 0.161
G17C C19U | 0.105
G17C C19G | 0.0591

Variant | self-cleavage
G17C C19A | 0.0513
G17U A34G | 0.182
G17U A34C | 0.0829
G16A C26G | 0.112
U18A A30C | 0.104
G16U A32G | 1.02
G16U A32U | 1
G16A G24C | 0.0993
G16A G24U | 0.113
G16A U37G | 0.195
G16A G41C | 0.167
G16A G41U | 0.396
G16U U37C | 0.261
G17U G24C | 0.0691
G17U G24U | 0.0893
C15U U31G | 0.782
C15U U31C | 0.923
G17C G36A | 0.0801
C15U G39C | 0.146
C15U G39A | 0.314
C15U G17A | 0.204
C15U G17U | 0.204
